# Experimental data taken from article PMC2174359 (The Journal of Cell Biology, 2000).
# Biological target: Sec13/31p complex (S. cerevisiae, UniProt Q04491 1-297; P38968 1-1273)
# Assay: co-sedimentation
# Sec13/31p complex, sequence (Q04491 whole entry, chain 1 of 2): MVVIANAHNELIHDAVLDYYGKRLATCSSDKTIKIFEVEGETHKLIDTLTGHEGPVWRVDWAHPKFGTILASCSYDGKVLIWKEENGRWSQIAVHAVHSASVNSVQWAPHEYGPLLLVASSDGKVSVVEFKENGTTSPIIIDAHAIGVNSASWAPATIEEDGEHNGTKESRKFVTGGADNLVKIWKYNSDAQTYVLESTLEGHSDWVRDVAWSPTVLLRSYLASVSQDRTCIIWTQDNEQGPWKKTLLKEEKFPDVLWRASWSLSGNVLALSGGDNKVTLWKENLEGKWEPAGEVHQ
# Sec13/31p complex, sequence (P38968 whole entry, chain 2 of 2): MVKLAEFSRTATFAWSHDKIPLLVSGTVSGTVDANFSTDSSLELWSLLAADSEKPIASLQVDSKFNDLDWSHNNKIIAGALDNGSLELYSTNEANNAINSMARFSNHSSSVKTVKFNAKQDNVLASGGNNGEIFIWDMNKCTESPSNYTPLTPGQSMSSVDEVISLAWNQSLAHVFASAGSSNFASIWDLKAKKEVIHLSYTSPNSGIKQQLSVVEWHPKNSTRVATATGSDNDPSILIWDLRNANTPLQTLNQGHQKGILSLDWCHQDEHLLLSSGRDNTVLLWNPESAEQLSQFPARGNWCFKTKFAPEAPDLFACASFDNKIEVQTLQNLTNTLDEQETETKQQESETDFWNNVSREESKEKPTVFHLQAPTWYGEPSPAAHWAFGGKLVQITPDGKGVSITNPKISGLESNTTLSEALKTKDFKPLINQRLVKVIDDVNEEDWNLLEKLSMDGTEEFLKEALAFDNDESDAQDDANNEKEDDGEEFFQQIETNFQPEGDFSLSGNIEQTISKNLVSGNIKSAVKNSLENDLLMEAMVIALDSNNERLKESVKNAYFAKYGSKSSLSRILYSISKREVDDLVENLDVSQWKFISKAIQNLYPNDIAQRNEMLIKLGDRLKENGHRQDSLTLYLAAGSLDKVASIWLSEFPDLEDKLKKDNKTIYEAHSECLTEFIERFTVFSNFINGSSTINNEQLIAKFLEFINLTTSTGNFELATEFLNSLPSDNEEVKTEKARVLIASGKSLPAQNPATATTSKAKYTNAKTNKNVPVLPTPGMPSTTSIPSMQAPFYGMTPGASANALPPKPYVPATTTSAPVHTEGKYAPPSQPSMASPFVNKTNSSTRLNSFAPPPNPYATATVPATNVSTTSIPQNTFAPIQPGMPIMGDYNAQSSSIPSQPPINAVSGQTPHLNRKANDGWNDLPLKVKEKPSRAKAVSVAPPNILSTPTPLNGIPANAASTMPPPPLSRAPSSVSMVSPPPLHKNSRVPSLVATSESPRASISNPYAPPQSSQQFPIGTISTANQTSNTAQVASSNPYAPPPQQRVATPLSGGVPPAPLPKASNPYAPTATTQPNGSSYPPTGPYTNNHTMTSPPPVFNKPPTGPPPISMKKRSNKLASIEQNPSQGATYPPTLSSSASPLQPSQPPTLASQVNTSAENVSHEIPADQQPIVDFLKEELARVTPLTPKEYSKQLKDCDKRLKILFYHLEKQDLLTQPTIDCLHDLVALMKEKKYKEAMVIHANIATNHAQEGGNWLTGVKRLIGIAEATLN
binder,measurement,value
"Lst1p, His6-tagged (LST1-His6) (natural protein, S. cerevisiae, UniProt P38810 1-929, looked up) MSQQNILAASVSALSLDESTVHTGGASSKKSRRPHRAYHNFSSGTVPTLGNSPYTTPQLNQQDGFQQPQAFTPKQFGGFNNGSGSVMSTPVMVSQERFGASEASSPYGQSMLDMTAPQPTSHIVPTQRFEDQAQYLQRSFETCRDSVPPLPTTQFYCVDQGSCDPHLMSLSMYNIPESEHLRAATKLPLGLTIQPFSTLTPNDAEVPTIPLPMDGTPLRCRRCRAYANPKFQFTYDSSVICNICRVKMQVPGEHFAPMGPNGQRSDLNEKSELLHGTVDFLVPSIYNAIQEKELLPLHYVFLIDVSLLANENGSSLAMVEGVRSCIEYISDFQPNCEVAIIVYDNKLRFFNLRPDLDNAQEYIVSELDDVFLPFYNGLFVKPGNSMKIINDTLIKISGYISTDKYSHVPQVCYGSALQAAKLALDTVTGGQGGKIICSLNSLPTIGNGNLSLKRDNAHIAHVKCDNGFYKKLASDFLKSYISLDLYVTNAGFIDMATVGHPVEMTSGILKYYPHFQQETDAFTLVNDMVTNVSNIVGYQALLKVRCSTGLSVEQYYCDSSDNTDHDPIIPVLTRDTTLDVLLKYDSKIKTGTDVHFQTALLYTDIDGVRKVRSINTSGAVSNNIREIFKFINQNPVMRIMIKDVIKTLGDCDFVKIRRLIDDKMVEILTQYRGLVSSNSSTQLILPDSIKTLPAYMLAFEKSELMKPNAQSTRGNERIYDLLKYDSLNSAQLCYKLYPQIVPFHVLLEETDLTFYDANDKLLQINSSSINNLSVRASHSNFINGGCYLIFQGDTIYLWFNENTNRMLLQDLLSVDESLPVSQISLFSGTLPETGTSINQKASNVIKNWQQVVNKSSLPLVLLRPNVDQYYSNVMSQLLCEDKTVNRIESYDNYLVIMHKKIQEKLQKDDFIKVSTAATHENIHQKFVQF",binding result,binds
